Holding throughout (assay): competition with [125I]-NDP-alpha-MSH, CHO-K1 cell membranes
The target of test [1] is T1, human melanocortin-1 receptor (human, UniProt Q01726 1-317).
T1 construct: whole, on cells; Ki assays used cellular membranes of the CHO-K1 cells; cAMP assays used the whole cells; also called hMC1; hMC-R receptor subtype 1
As to the method: (§1) Competitive inhibition of [¹²⁵I](Tyr²)-(Nle⁴-D-Phe⁷)α-MSH ([¹²⁵I]-NDP-α-MSH, Amersham Biosciences®) binding was carried out in polypropylene 96 well plates. […] Bound [¹²⁵I]-NDP-α-MSH ligand was separated from free [¹²⁵I]-NDP-α-MSH by filtration through GF/C glass fiber filter plates (Unifilter®; Packard) presoaked with 0.1% (w/v) polyethylenimine (PEI), using a Packard Filtermate® harvester. Filters were washed three times with 50 mM Tris-HCl at pH 7.4 at a temperature of approximately 0-4° C. and then assayed for radioactivity using a Packard Topcount® scintillation counter. Binding data were analyzed by computer-assisted non-linear regression analysis (XL fit; IDBS).

In test [2] the target is T2, human melanocortin-4 receptor (human, UniProt P32245 1-332).
T2 construct: whole, on cells; Ki assays used cellular membranes of the CHO-K1 cells; cAMP assays used the whole cells; also called hMC4; hMC-R receptor subtype 4
T2 sequence (P32245 whole entry): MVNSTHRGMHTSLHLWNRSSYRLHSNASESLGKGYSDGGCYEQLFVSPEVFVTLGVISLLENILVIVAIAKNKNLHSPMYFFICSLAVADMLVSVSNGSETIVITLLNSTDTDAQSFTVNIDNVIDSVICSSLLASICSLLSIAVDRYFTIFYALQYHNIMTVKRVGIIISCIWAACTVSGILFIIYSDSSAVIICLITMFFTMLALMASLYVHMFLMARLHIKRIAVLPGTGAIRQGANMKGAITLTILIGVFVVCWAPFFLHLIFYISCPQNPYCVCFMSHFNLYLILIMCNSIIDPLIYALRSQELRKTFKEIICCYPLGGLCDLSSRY
The method, then: as §1

Test [3] addresses T3, human melanocortin-5 receptor (human, UniProt P33032 1-325).
T3 construct: whole, on cells; Ki assays used cellular membranes of the CHO-K1 cells; cAMP assays used the whole cells; also called hMC5; hMC-R receptor subtype 5
The method, then:
as §1

The target of test [4] is T4, human melanocortin-3 receptor (human, UniProt P41968 1-323).
T4 construct: whole, on cells; Ki assays used cellular membranes of the CHO-K1 cells; cAMP assays used the whole cells; also called hMC3; hMC-R receptor subtype 3
T4 sequence (P41968 whole entry): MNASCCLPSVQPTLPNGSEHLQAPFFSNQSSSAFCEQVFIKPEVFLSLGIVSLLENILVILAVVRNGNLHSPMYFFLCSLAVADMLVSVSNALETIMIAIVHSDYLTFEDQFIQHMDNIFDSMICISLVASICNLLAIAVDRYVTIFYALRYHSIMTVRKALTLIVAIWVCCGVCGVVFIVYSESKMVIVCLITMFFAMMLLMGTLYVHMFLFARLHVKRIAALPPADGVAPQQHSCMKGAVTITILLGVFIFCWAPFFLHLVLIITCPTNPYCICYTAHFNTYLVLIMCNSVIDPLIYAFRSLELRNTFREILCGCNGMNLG
As to the method: as §1

T3 sequence (P33032 whole entry): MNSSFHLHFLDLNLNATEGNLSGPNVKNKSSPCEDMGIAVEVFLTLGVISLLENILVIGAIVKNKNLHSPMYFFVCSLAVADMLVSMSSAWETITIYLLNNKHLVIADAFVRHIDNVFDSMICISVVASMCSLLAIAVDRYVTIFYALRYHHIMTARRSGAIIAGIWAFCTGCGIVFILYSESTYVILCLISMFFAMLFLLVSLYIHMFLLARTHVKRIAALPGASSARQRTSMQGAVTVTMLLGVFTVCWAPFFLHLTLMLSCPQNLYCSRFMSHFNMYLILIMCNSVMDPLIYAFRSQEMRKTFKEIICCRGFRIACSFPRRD
T1 sequence (Q01726 whole entry): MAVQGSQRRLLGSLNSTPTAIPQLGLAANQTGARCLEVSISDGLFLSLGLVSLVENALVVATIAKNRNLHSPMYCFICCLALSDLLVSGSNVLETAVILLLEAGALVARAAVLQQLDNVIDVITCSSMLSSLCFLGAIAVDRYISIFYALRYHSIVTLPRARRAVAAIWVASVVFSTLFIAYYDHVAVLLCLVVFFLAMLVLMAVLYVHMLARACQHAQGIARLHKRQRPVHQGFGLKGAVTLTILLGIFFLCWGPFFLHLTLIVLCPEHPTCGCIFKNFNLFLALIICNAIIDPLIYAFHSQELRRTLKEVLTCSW

B1: cyclo[Hydantoin(C(O)-(Ile-Cys))-D-Ala-His-D-Phe-Arg-Trp-Cys]-NH2 (peptide)
peptide: XHXRWC
modifications: hydantoin ring from Ile 1, C(O) and the amino group of Cys 2; D-Ala 3; D-Phe 5; disulfide Cys 2-Cys 8 (cyclo); C-terminal amide
Turning to B1, the Ki (as a rule, a dissociation constant, usually derived from enzyme kinetics or from competition with a known ligand) worked out at 53.4 nM in test [1] and 41.6 nM in test [2].

B2: Hydantoin(C(O)-(Arg-Gly))-cyclo(Cys-Glu-His-D-Phe-Arg-Trp-Cys)-NH2 (peptide)
peptide: CEHXRWC
modifications: not fully specified; hydantoin ring from Arg 1, C(O) and the amino group of Gly 2; D-Phe 6; disulfide Cys 3-Cys 9 (cyclo); C-terminal amide
notes: also called Compound C
In the case of B2, the Ki was 8.59 nM in test [1] and 7760 nM in test [3].

B3: Hydantoin(C(O)-(Gly-Gly))-cyclo(Cys-Glu-His-D-Phe-Arg-Trp-Cys)-NH2 (peptide)
peptide: CEHXRWC
modifications: not fully specified; hydantoin ring from Gly 1, C(O) and the amino group of Gly 2; D-Phe 6; disulfide Cys 3-Cys 9 (cyclo); C-terminal amide
notes: residue 6 here is D-Phe
In the case of B3, the Ki in test [1] worked out at 11.9 nM; in test [3] it was 73.9 nM.

B4: cyclo[Hydantoin(C(O)-(Gly-Cys))-Glu-His-D-Phe-Arg-Trp-Cys]-NH2 (peptide)
peptide: EHXRWC
modifications: not fully specified; hydantoin ring from Gly 1, C(O) and the amino group of Cys 2; D-Phe 5; disulfide Cys 2-Cys 8 (cyclo); C-terminal amide
In the case of B4, the Ki in test [1] is 15.6 nM; in test [4], 305 nM; in test [2], 8.92 nM; in test [3], 3070 nM.

B5: Hydantoin(C(O)-(Gly-Arg))-cyclo(Cys-Glu-His-D-Phe-Arg-Trp-Cys)-NH2 (peptide)
peptide: CEHXRWC
modifications: hydantoin ring from Gly 1, C(O) and the amino group of Arg 2; D-Phe 6; disulfide Cys 3-Cys 9 (cyclo); C-terminal amide
notes: residue 6 here is D-Phe; also called Compound E
Consider B5, for which the values for the Ki in test [1] and in test [3] were 5.68 nM and 4220 nM, respectively.

B6: Hydantoin(C(O)-(Nle-Gly))-cyclo(Cys-Glu-His-D-Phe-Arg-Trp-Cys)-NH2 (peptide)
peptide: CEHXRWC
modifications: not fully specified; hydantoin ring from Nle 1, C(O) and the amino group of Gly 2; Nle 1; D-Phe 6; disulfide Cys 3-Cys 9 (cyclo); C-terminal amide
notes: residue 6 here is D-Phe; also called Compound F
In the case of B6, the Ki in test [1] turned out to be 14.3 nM; in test [3], 67.8 nM.

These data come from patent US20210163536A1 (IPSEN PHARMA S A S, published 2021).
